From patent publication US5723579A, “Fibrinogen binding peptides” (Bayer Corporation, priority 1996, dated 1998)
No end group written: not given here.

Experiments:
[1] = target: T1, fibrinogen (Homo sapiens, UniProt P02671+P02675+P02679); experiment: Confirmatory binding assay in column chromatographic format: fibrinogen applied to peptide resins, NaCl wash and acid eluate quantified by A280; conditions: for 2% Acetic Acid Eluate, A280: peptide synthesized on A-Totda-Toyopearl, Table 2; for 1 M NaCl Eluate, integration of the absorbance at 280 nm / 2% Acetic Acid Eluate, integration of the absorbance at 280 nm: truncations on A-Totda-Toyopearl, Table 6
T1 construct: purchased Sigma Chemical Co. (St. Louis, Mo.) and Chromogenix AB (Molndal, Sweden)
T1 sequence (P02671 20-644 isoform P02671-2 limits assumed): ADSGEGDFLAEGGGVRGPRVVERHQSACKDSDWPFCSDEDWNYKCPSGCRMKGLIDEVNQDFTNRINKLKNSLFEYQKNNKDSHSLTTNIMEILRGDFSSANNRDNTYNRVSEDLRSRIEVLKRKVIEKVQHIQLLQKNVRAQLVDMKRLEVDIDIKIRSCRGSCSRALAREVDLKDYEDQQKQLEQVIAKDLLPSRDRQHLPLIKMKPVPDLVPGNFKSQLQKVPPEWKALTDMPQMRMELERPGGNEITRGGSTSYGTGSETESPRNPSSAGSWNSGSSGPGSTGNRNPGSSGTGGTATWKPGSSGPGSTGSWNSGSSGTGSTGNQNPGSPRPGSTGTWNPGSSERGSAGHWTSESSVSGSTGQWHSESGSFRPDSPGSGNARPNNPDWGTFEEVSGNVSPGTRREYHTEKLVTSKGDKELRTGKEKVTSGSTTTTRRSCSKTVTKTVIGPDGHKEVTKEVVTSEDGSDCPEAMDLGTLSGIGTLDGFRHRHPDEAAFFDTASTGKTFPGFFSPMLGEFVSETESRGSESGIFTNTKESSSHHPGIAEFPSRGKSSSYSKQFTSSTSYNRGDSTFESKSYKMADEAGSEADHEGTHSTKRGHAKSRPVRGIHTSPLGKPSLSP
T1 sequence (P02675 31-491): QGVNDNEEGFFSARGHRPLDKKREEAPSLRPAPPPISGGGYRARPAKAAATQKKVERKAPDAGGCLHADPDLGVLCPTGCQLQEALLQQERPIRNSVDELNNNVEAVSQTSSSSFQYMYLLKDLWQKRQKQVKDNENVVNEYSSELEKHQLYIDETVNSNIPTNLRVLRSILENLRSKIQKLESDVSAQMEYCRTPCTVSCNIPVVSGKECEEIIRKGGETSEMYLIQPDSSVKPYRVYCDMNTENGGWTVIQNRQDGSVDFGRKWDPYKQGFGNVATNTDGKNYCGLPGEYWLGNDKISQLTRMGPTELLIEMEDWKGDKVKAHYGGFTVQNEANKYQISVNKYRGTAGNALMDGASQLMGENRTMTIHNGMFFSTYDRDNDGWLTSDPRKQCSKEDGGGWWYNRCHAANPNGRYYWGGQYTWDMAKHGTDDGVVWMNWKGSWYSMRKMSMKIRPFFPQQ
T1 sequence (P02679 27-453): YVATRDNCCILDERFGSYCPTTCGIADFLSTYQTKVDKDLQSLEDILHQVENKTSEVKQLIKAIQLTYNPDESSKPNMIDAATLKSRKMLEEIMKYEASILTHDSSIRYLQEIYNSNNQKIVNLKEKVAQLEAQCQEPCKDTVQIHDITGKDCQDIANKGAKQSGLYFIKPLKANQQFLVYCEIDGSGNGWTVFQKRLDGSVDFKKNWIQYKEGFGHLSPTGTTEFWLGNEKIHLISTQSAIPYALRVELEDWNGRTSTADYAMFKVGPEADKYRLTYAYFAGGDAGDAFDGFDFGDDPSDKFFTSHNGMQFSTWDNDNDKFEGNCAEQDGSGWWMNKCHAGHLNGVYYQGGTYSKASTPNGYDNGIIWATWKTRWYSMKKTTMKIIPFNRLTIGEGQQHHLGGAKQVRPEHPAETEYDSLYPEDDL
Experimental: Confirmatory binding assays were performed in a column chromatographic format on a microbore HPLC using individual peptide sequences synthesized directly onto the Toyopearl 650M Chelate resin which had been modified with Totda followed by an alanine residue (A-Totda-Toyopearl), at a final substitution density of 0.2 mmole/g resin. […] The endpoint was a dose-dependent increase in the acid eluate in the fibrinogen contactings, and quantification was by integration of the absorbance at 280 nm (Table 2).
Peptides PLLVPL and FLLVPL, with and without an N-acetylated amino terminus, were synthesized directly onto Ala-Totda-Toyopearl at a density of approximately 0.2 mmole/g resin. The ability of these resins to bind fibrinogen was determined as above. An unblocked (free) amino terminus was required for binding fibrinogen to PLLVPL-A-Totda-Toyopearl (Table 5) (SEQ ID NO:2). Similar results were obtained in a separate experiment by using FLLVPL-A-Totda-Toyopearl (Table 5) (SEQ ID NO:1).
Truncations from the carboxyl- and amino- termini of PLLVPL and FLLVPL (SEQ ID NOS 2 and 1, respectively) synthesized directly on A-Totda-Toyopearl resin in order to identify the minimum sequence necessary for binding.

[2] = target: T1, fibrinogen; experiment: Isothermal titration calorimetry of peptide binding to purified fibrinogen; conditions: solution phase binding, soluble peptide; 30° C., 30 mM phosphate buffer, pH 7.0
Experimental: Isothermal titration colorimetry was performed using either purified, soluble peptides (5 mM) or peptides synthesized directly on A-Totda-Togopearl (1.4mM) and with purified fibrinogen (50 μM) by a modification of the technique of Tyler-Cross et at. (1993). All measurements were performed at 30° C. in 30 mM phosphate buffer, pH 7.0 with an Omega titration colorimeter (Microcal, Inc., Northampton, Mass.).
Solution phase binding isotherms were performed on the purified soluble peptides and purified fibrinogen by using isothermal titration calorimetry (Table 3). […] A change from P to F at the amino terminus lowered the dissociation constant over 150-fold. PLLVPL (SEQ ID NO:2) bound to approximately 3 to 4 sites per fibrinogen molecule. […] Both peptide binding reactions were endothermic as indicated by the positive enthalpy (ΔH), and were thermodynamically favorable (negative ΔG) under the conditions tested. Unusually high entropic terms indicate a conformational change may be driving the association of peptide with fibrinogen.

[3] = target: T1, fibrinogen; experiment: Characterization of binding interaction: fibrinogen (25 mg) on 5 ml FLLVPL resin column, binding and elution under varied conditions
Experimental: Peptide FLLVPL was synthesized directly on A-Totda-Toyopearl at a density of 0.2 mmole/g resin. A column of dimensions 1.0×6.4 cm (approximately 5 ml column volume) was equilibrated with either 10 mM HEPES or 10 mM sodium acetate, pH 6.8, 1.0 mM EGTA and either 0.1, 0.2 or 1.0M NaCl. Fibrinogen (25 mg; 5.0 ml) was applied to the column in 10 mM sodium acetate, pH 6.8 and 1 mM EGTA containing 0.1M NaCl.
Fibrinogen (25 mg; 5.0 ml) was applied to the column in 10 mM sodium acetate, pH 6.8 and 1 mM EGTA containing 0.1M NaCl.
No elution of fibrinogen (applied to the column in 10 mM sodium acetate, pH 6.8 and 1 mM EGTA containing 0.1M NaCl) was observed by using the hydrophilic compound, polyethylene glycol (10%). Only approximately 8 percent of the applied fibrinogen was eluted by increasing the pH to 10 with 10 mM sodium borate. Further increases in pH with a linear gradient (pH 6.8 to 12.0) released approximately 25 percent of the fibrinogen.
In order to assess further the contribution of hydrophobic interactions to the binding mechanism of FLLVPL (SEQ ID NO.:1) to fibrinogen, fibrinogen (25 mg; 5.0 ml) was applied to the peptide under high salt conditions favorable to hydrophobic bonding and release under low ionic strength. The peptide resin was equilibrated with 10 mM sodium acetate, 1.0M NaCl, and 1.0 mM EGTA, pH 6.8. Five milliliters of a solution of fibrinogen (5 mg/ml) in the same buffer was applied to the column, and washed with two column volumes of the same buffer. The resin was then contacted with 10 column volumes of 10 mM sodium acetate, pH 4.0 followed by 2% acetic acid (4 column volumes). […] Low ionic strength and low pH (4.0) released approximately 78.3 percent of the protein. However, only 5% of the applied protein was eluted in a second experiment when the 10 mM sodium acetate, pH 4.0 solution contained 0.1M NaCl. Acid treatment released the remainder of the recovered protein in both experiments.

AALVPL: peptide sequence AALVPL synthesized on A-Totda-Toyopearl (not fully specified (C-terminus))
2% Acetic Acid Eluate, A280 ([1]; 250 μg fibrinogen applied): 0.02 | 2% Acetic Acid Eluate, A280 ([1]; 500 μg fibrinogen applied): 0.09 | 2% Acetic Acid Eluate, A280 ([1]; 1000 μg fibrinogen applied): 0.12

ALLVPL: peptide sequence ALLVPL synthesized on A-Totda-Toyopearl (not fully specified (C-terminus))
2% Acetic Acid Eluate, A280 ([1]; 250 μg fibrinogen applied): 0.02 | 2% Acetic Acid Eluate, A280 ([1]; 500 μg fibrinogen applied): 0.09 | 2% Acetic Acid Eluate, A280 ([1]; 1000 μg fibrinogen applied): 0.12

FLLVPL-NH2 [FLLVPL, Phe-Leu-Leu-Val-Pro-Leu]
Kd [2]: 4.5 µM | applied protein eluted ([3]; 10 mM sodium acetate, pH 4.0 containing 0.1M NaCl (second experiment)): 5% | applied protein (A280) not interacting with the column, recovered in flow through and wash ([3]; applied in 10 mM sodium acetate, 1.0M NaCl, 1.0 mM EGTA, pH 6.8): Approximately 7.2% | release of the applied protein ([3]; elution with ionic detergent (2% sodium cholate)): 14% | release of the applied protein ([3]; elution with nonionic detergent (5% Tween-20) in the binding buffer): 40% | fibrinogen released ([3]; linear pH gradient (pH 6.8 to 12.0)): approximately 25% | protein released ([3]; low ionic strength, 10 mM sodium acetate, pH 4.0, after high salt application): approximately 78.3% | applied absorbance (280 nm) that failed to bind the column ([3]; pH 6.8, 1.0 mM EGTA, column equilibrated with 0.1, 0.2 or 1.0M NaCl): 5 to 8% | release of fibrinogen ([3]; pH gradient from 6.8 to 4.0, release at pH 4.2): approximately 66% | applied fibrinogen eluted ([3]; pH increased to 10 with 10 mM sodium borate): approximately 8%

PALVPL: peptide sequence PALVPL synthesized on A-Totda-Toyopearl (not fully specified (C-terminus))
2% Acetic Acid Eluate, A280 ([1]; 250 μg fibrinogen applied): 0.01 | 2% Acetic Acid Eluate, A280 ([1]; 500 μg fibrinogen applied): 0.06 | 2% Acetic Acid Eluate, A280 ([1]; 1000 μg fibrinogen applied): 0.13

PLLVPL-NH2 [PLLVPL, Pro-Leu-Leu-Val-Pro-Leu]
Kd [2]: 688 µM

Phe-Ala-Leu-Val- Pro-Leu (FALVPL; not fully specified (C-terminus); printed as Phe-Ala-Leu-Val-Pro-Leu)
2% Acetic Acid Eluate, A280 ([1]; 250 μg fibrinogen applied): 0.72 | 2% Acetic Acid Eluate, A280 ([1]; 500 μg fibrinogen applied): 1.35 | 2% Acetic Acid Eluate, A280 ([1]; 1000 μg fibrinogen applied): 2.78

Phe-Leu-Leu-Val (FLLV; printed: Phe-Leu-Leu-Val) [truncation of FLLVPL on A-Totda-Toyopearl resin]
1 M NaCl Eluate, integration of the absorbance at 280 nm ([1]; 250 μg fibrinogen applied): 0.00 ×10^6 | 2% Acetic Acid Eluate, integration of the absorbance at 280 nm ([1]; 250 μg fibrinogen applied): 1.51 ×10^6 | 1 M NaCl Eluate, integration of the absorbance at 280 nm ([1]; 500 μg fibrinogen applied): 0.00 ×10^6 | 2% Acetic Acid Eluate, integration of the absorbance at 280 nm ([1]; 500 μg fibrinogen applied): 1.79 ×10^6 | 1 M NaCl Eluate, integration of the absorbance at 280 nm ([1]; 1000 μg fibrinogen applied): 0.50 ×10^6 | 2% Acetic Acid Eluate, integration of the absorbance at 280 nm ([1]; 1000 μg fibrinogen applied): 4.99 ×10^6
